Measured values as given in PMC7416112 (Structure(London, England:1993), 2020).

B1: 2G12 Fab2 (Fab, V domains shown)
VH: EVQLVESGGGLVKAGGSLILSCGVSNFRISAHTMNWVRRVPGGGLEWVASISTSSTYRDYADAVKGRFTVSRDDLEDFVYLQMHKMRVEDTAIYYCARKGSDRLSDNDPFDAWGPGTVVTVSP
VL: DVVMTQSPSTLSASVGDTITITCRASQSIETWLAWYQQKPGKAPKLLIYKASTLKTGVPSRFSGSGSGTEFTLTISGLQFDDFATYHCQHYAGYSATFGQGTRVEIK
notes: also called 2G12 bnAb; copies: 2 + 2

What was measured:
Assay in all cases: BLI
[1] = target: BG505 SOSIP.v4.1-2XStrep N332 N363Q (HIV-1 (BG505))
[2] = target: BG505 SOSIP.v4.1-2XStrep N332 N339Q (HIV-1 (BG505))
[3] = target: BG505 SOSIP.v4.1-2XStrep N332 N386Q (HIV-1 (BG505))
[4] = target: BG505 SOSIP.v4.1-2XStrep N332 N295Q (HIV-1 (BG505))
[5] = target: BG505 SOSIP.v4.1-2XStrep (N332) (HIV-1 (BG505))
[6] = target: BG505 SOSIP.v4.1-2XStrep N332 N392Q (HIV-1 (BG505))
[7] = target: BG505 SOSIP.v4.1-2XStrep T332 (HIV-1 subtype A, BG505, UniProt Q2N0S6, stabilised); conditions: both partners purified

Row | Molecule | Kd [1] [nM] | Kd [2] [nM] | Kd [3] [nM] | Kd [4] [nM] | Kd [5] [nM] | Kd [6] [nM] | Kd [7] [nM] | koff [7] [s⁻¹] | kon [7] [M⁻¹ s⁻¹]
1 | 2G12 Fab2 | 3.99 | 7.35 | 3.15 | 11.4 | 4.25 | 16.8 | – | – | –
2 | B1 | – | – | – | – | – | – | 22.9 | 0.00558 | 244000
